Assay results taken from the supplement of paper PMC7877785.
± gives the uncertainty stated by the source.

Assay: self-splicing fitness, log relative to wild type (ln ratio); higher = more splicing; Tetrahymena group I intron in knt gene, E. coli kanamycin selection, DiMSum; sequences stand for … in CUCUCU…GGAGGGAAAAGUUAUCAGGCAUGCACCUGGUAGCUAGUCUUUAAACCAAUAGAUUGCAUCGGUUUAAAAGGCAAGACCGUCAAAUUGCGGGAAAGGGGUCAACAGCCGUUCAGUACCAAGUCUCAGGGGAAACUUUGAGAUGGCCUUGCAAAGGGUAUGGUAAUAAGCUGACGGACAUGGUCCUAACCACGCAGCCAAGUCCUAAGUCAACAGAUCUUCUGUUGAUAUGGAUGCAGUUCACAGACUAAAUGUCGGUCGGGGAAGAUGUAUUCUUCUCAUAAGAUAUAGUCGGACCUCUCCUUAAUGGGAGCUAGCGGAUGAAGUGAUGCAACACUGGAGCCGCUGGGAACUAAUUUGUAUGCGAAAGUAUAUUGAUUAGUUUUGGAGUACUCGUGGUCG
How it was run: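 A randomised library covering all eight P1ex-region intron nucleotides was built with the intron in the knt kanamycin-resistance gene on pET-22b(+) and held in E. coli BL21(DE3). Cells were grown overnight at 37°C or 30°C on LB agar, with or without 25 μg/mL kanamycin, plus 100 μg/mL carbenicillin, 50 μM IPTG and 0.2% rhamnose, and pooled colonies were amplicon-sequenced on an Illumina HiSeq 2500. DiMSum fitness is the error-weighted combination of wild-type-normalised replicate fold changes, kanamycin versus none.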

Sequence: GCGAAGCAAUAUUACGUAAG
- self-splicing fitness (ln) (30 °C): -2.04 ± 0.11
- self-splicing fitness (ln) (37 °C): -1.41 ± 0.13

Sequence: GCGAAGCAAUAUUACGUAGG
- self-splicing fitness (ln) (30 °C): -1.32 ± 0.092
- self-splicing fitness (ln) (37 °C): -1.43 ± 0.13

Sequence: GCGAAGCAAUAUUACGUCUA
- self-splicing fitness (ln) (30 °C): -1.16 ± 0.1
- self-splicing fitness (ln) (37 °C): -1.3 ± 0.093

Sequence: GCGAAGCAAUAUUACGUGAU
- self-splicing fitness (ln) (30 °C): -2.53 ± 0.092
- self-splicing fitness (ln) (37 °C): -0.973 ± 0.098

Sequence: GCGAAGCAAUAUUACGUGCG
- self-splicing fitness (ln) (30 °C): -2.31 ± 0.16
- self-splicing fitness (ln) (37 °C): -1.5 ± 0.18

Sequence: GCGAAGCAAUAUUACGUGGG
- self-splicing fitness (ln) (30 °C): -3.87 ± 0.24
- self-splicing fitness (ln) (37 °C): -2.67 ± 0.26

Sequence: GCGAAGCAAUAUUACGUGUU
- self-splicing fitness (ln) (30 °C): -2.52 ± 0.11
- self-splicing fitness (ln) (37 °C): -2.07 ± 0.11

Sequence: GCGCAGCAAUAUUACGAAAC
- self-splicing fitness (ln) (30 °C): -0.473 ± 0.16
- self-splicing fitness (ln) (37 °C): -0.354 ± 0.19

Sequence: GCGCAGCAAUAUUACGACCG
- self-splicing fitness (ln) (30 °C): -1.37 ± 0.18
- self-splicing fitness (ln) (37 °C): -0.215 ± 0.21

Sequence: GCGCAGCAAUAUUACGAUUU
- self-splicing fitness (ln) (30 °C): -1.07 ± 0.094
- self-splicing fitness (ln) (37 °C): 0.585 ± 0.11

Sequence: GCGCAGCAAUAUUACGCAGU
- self-splicing fitness (ln) (30 °C): -2.63 ± 0.31
- self-splicing fitness (ln) (37 °C): -1.04 ± 0.29

Sequence: GCGCAGCAAUAUUACGCAUG
- self-splicing fitness (ln) (30 °C): -3.37 ± 0.28
- self-splicing fitness (ln) (37 °C): -3.3 ± 0.33

Sequence: GCGCAGCAAUAUUACGCGUG
- self-splicing fitness (ln) (30 °C): -1.93 ± 0.11
- self-splicing fitness (ln) (37 °C): -1.36 ± 0.13

Sequence: GCGCAGCAAUAUUACGCUCC
- self-splicing fitness (ln) (30 °C): -0.982 ± 0.34
- self-splicing fitness (ln) (37 °C): -1.01 ± 0.45

Sequence: GCGCAGCAAUAUUACGGCAU
- self-splicing fitness (ln) (30 °C): -0.756 ± 0.075
- self-splicing fitness (ln) (37 °C): 0.684 ± 0.11

Sequence: GCGCAGCAAUAUUACGGUAC
- self-splicing fitness (ln) (30 °C): -1.22 ± 0.082
- self-splicing fitness (ln) (37 °C): 0.195 ± 0.095

Sequence: GCGCAGCAAUAUUACGGUCC
- self-splicing fitness (ln) (30 °C): -1.22 ± 0.12
- self-splicing fitness (ln) (37 °C): 0.23 ± 0.17

Sequence: GCGCAGCAAUAUUACGGUUA
- self-splicing fitness (ln) (30 °C): -1.11 ± 0.084
- self-splicing fitness (ln) (37 °C): -0.631 ± 0.08

Sequence: GCGCAGCAAUAUUACGUCAC
- self-splicing fitness (ln) (30 °C): -4.04 ± 0.17
- self-splicing fitness (ln) (37 °C): -1.65 ± 0.11

Sequence: GCGCAGCAAUAUUACGUGGG
- self-splicing fitness (ln) (30 °C): -2.53 ± 0.1
- self-splicing fitness (ln) (37 °C): -1.6 ± 0.11

Sequence: GCGCAGCAAUAUUACGUUCU
- self-splicing fitness (ln) (30 °C): -0.657 ± 0.093
- self-splicing fitness (ln) (37 °C): 0.0134 ± 0.11

Sequence: GCGGAGCAAUAUUACGAAUA
- self-splicing fitness (ln) (37 °C): -3.02 ± 0.4

Sequence: GCGGAGCAAUAUUACGACAG
- self-splicing fitness (ln) (30 °C): -3.33 ± 0.5
- self-splicing fitness (ln) (37 °C): -1.09 ± 0.45

Sequence: GCGGAGCAAUAUUACGACGC
- self-splicing fitness (ln) (37 °C): -2.45 ± 0.21

Sequence: GCGGAGCAAUAUUACGAGCA
- self-splicing fitness (ln) (37 °C): -0.82 ± 0.4

Sequence: GCGGAGCAAUAUUACGAUUG
- self-splicing fitness (ln) (30 °C): -3.31 ± 0.19
- self-splicing fitness (ln) (37 °C): -2.23 ± 0.24

Sequence: GCGGAGCAAUAUUACGCAAC
- self-splicing fitness (ln) (30 °C): -2.35 ± 0.48

Sequence: GCGGAGCAAUAUUACGCAUU
- self-splicing fitness (ln) (30 °C): -2.8 ± 0.39

Sequence: GCGGAGCAAUAUUACGCGAG
- self-splicing fitness (ln) (37 °C): -2.39 ± 0.36

Sequence: GCGGAGCAAUAUUACGCGUG
- self-splicing fitness (ln) (30 °C): -2.56 ± 0.29
- self-splicing fitness (ln) (37 °C): -1.85 ± 0.29

Sequence: GCGGAGCAAUAUUACGCUUG
- self-splicing fitness (ln) (30 °C): -3.14 ± 0.24
- self-splicing fitness (ln) (37 °C): -1.06 ± 0.2

Sequence: GCGGAGCAAUAUUACGGAAG
- self-splicing fitness (ln) (37 °C): -2.11 ± 0.36

Sequence: GCGGAGCAAUAUUACGGCUA
- self-splicing fitness (ln) (37 °C): -1.81 ± 0.39

Sequence: GCGGAGCAAUAUUACGGUCC
- self-splicing fitness (ln) (30 °C): -2.54 ± 0.39

Sequence: GCGGAGCAAUAUUACGGUGG
- self-splicing fitness (ln) (30 °C): -3.54 ± 0.35
- self-splicing fitness (ln) (37 °C): -2.27 ± 0.39

Sequence: GCGGAGCAAUAUUACGUAAC
- self-splicing fitness (ln) (30 °C): -1.54 ± 0.34

Sequence: GCGGAGCAAUAUUACGUAUC
- self-splicing fitness (ln) (30 °C): -1.83 ± 0.33
